The values below come from US20240376185A1 (SMIVET B V, published 2024).

What is called koff is the rate constant with which the complex falls apart. In general, kon refers to the second-order rate constant of association.

Assay [1] addresses T1, tetanus neurotoxin (TeNT), authentic tetanus holotoxin (Clostridium tetani, UniProt P04958 2-1315). As to the kind of experiment: GT1b-TeNT inhibition ELISA. (ELISA stands for enzyme-linked immunosorbent assay.)
Target sequence in this assay (P04958 2-457 limits assumed, chain 1 of 2): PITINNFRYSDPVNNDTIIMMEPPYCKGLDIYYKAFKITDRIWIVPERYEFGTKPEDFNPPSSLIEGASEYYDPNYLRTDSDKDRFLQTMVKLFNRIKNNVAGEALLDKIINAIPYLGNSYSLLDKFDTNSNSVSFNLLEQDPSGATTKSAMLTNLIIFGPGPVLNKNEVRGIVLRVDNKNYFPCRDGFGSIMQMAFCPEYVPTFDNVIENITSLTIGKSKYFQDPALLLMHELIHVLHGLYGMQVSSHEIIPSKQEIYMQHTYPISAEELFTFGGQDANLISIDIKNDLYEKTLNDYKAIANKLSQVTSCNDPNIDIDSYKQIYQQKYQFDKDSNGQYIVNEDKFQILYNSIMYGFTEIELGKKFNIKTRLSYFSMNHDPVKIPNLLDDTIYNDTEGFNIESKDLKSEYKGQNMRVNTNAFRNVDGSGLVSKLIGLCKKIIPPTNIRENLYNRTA
Target sequence in this assay (P04958 458-1315 limits assumed, chain 2 of 2): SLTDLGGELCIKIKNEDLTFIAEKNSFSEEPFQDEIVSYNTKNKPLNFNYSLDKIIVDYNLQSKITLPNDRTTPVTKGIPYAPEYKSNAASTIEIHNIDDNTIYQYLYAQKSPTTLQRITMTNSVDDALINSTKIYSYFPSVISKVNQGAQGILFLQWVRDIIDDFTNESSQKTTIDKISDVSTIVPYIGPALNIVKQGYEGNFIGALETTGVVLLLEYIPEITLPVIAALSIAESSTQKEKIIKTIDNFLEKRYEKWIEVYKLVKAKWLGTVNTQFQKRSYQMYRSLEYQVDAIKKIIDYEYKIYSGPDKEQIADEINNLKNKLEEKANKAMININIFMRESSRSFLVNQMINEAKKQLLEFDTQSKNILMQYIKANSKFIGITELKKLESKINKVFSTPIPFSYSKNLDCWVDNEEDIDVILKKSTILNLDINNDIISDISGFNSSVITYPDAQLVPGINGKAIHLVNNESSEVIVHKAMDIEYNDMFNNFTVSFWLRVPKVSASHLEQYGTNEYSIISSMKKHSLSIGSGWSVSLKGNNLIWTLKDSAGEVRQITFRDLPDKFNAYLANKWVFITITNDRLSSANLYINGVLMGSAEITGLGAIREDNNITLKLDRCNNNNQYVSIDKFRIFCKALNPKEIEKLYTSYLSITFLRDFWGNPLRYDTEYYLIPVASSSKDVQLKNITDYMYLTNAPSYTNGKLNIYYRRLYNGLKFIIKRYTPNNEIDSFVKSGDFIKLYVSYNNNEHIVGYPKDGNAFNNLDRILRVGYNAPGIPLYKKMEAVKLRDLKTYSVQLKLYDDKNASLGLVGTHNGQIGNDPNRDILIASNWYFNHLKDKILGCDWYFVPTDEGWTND
Assay [2] deals with T1, tetanus neurotoxin (TeNT), authentic …. Description: GT1b-TeNT inhibition ELISA. This is another data set of the same source.
Target sequence in this assay (P04958 2-457 limits assumed, chain 1 of 2): as the sequence (P04958 2-457 limits assumed, chain 1 of 2) above
Target sequence in this assay (P04958 458-1315 limits assumed, chain 2 of 2): as the sequence (P04958 458-1315 limits assumed, chain 2 of 2) above
Assay [3] deals with horse albumin (horse Alb) (horse, UniProt P35747 25-607). As to the kind of experiment: BLI ([…] (0.11 nm), […] (0.01 nm).
For assay [4], the target named is T1, tetanus neurotoxin (TeNT), authentic …. Description: ELISA: directly coated TeNT, anti-his6 PO.
Target sequence in this assay (P04958 2-457 limits assumed, chain 1 of 2): as the sequence (P04958 2-457 limits assumed, chain 1 of 2) above
Target sequence in this assay (P04958 458-1315 limits assumed, chain 2 of 2): as the sequence (P04958 458-1315 limits assumed, chain 2 of 2) above
Assay [5] shares this target. As to the kind of experiment: ELISA: directly coated TeNT, anti-his6 PO. This is another data set of the same source.
Target sequence in this assay (P04958 2-457 limits assumed, chain 1 of 2): as the sequence (P04958 2-457 limits assumed, chain 1 of 2) above
Target sequence in this assay (P04958 458-1315 limits assumed, chain 2 of 2): as the sequence (P04958 458-1315 limits assumed, chain 2 of 2) above
Assay [6] shares this target. Description: ELISA: directly coated TeNT, goat anti-llama Ig PO.
Target sequence in this assay (P04958 2-457 limits assumed, chain 1 of 2): as the sequence (P04958 2-457 limits assumed, chain 1 of 2) above
Target sequence in this assay (P04958 458-1315 limits assumed, chain 2 of 2): as the sequence (P04958 458-1315 limits assumed, chain 2 of 2) above
Assay [7] has the same target. As to the kind of experiment: ELISA: directly coated TeNT, goat anti-llama Ig PO. This is another data set of the same source.
Target sequence in this assay (P04958 2-457 limits assumed, chain 1 of 2): as the sequence (P04958 2-457 limits assumed, chain 1 of 2) above
Target sequence in this assay (P04958 458-1315 limits assumed, chain 2 of 2): as the sequence (P04958 458-1315 limits assumed, chain 2 of 2) above
Assay [8] has the same target. As to the kind of experiment: BLI (Octet Red96): biotinylated SDA on SA sensor, TeNT as analyte. (In BLI a coated tip is dipped into the sample, and binding shifts an interference pattern.)
For assay [9] the target is unchanged. As to the kind of experiment: bridging ELISA: coated TeNT, SDA, biotinylated TeNT, StrepPO (bivalent binding).
For assay [10] the target is unchanged. The description is as above. The source holds these as a separate data set.
In a further assay the target is T2, dog serum albumin (dog, UniProt P49822 25-608).
T2 construct: mature; also called dog Alb; Canine albumin
T2 sequence (P49822 25-608): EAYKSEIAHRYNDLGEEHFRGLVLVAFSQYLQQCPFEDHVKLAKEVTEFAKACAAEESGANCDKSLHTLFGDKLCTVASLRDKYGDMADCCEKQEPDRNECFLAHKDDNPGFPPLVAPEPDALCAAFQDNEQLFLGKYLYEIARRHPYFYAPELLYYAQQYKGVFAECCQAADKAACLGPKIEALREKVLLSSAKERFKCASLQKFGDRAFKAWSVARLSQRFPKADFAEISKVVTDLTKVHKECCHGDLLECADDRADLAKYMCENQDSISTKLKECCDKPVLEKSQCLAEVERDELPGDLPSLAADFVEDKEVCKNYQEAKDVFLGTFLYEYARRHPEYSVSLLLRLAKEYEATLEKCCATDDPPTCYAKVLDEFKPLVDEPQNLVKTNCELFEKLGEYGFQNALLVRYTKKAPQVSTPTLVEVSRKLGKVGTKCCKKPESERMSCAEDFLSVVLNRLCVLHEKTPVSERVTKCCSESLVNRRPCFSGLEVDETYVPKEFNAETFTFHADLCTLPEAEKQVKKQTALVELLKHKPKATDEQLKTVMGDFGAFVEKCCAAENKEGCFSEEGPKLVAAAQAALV
As to the kind of experiment: BLI, biotinylated SDA on SA sensors.

The target in a further assay is T3, horse serum albumin (horse, UniProt P35747 25-607).
T3 construct: mature; also called horse Alb; Equine albumin
As to the kind of experiment: BLI, biotinylated albumin on SA sensors.

The next assay deals with T4, human serum albumin (human, UniProt P02768 25-609).
T4 construct: mature; also called human Alb
Description: BLI, biotinylated albumin on SA sensors.

Assay [11] deals with T1, tetanus neurotoxin (TeNT), authentic ….
The target is the same in assay [12]. Description: cell-based or functional assay.
Target sequence in this assay (P04958 2-457 limits assumed): as the sequence (P04958 2-457 limits assumed, chain 1 of 2) above
The target is the same in assay [13]. Description: BLI (Octet Red96): biotinylated TeNT on SA sensor, SDA as analyte.
Assay [14] shares this target. Description: BLI (Octet Red96); estimate of the footnote with kdis set to 1.0E-07.
Target sequence in this assay (P04958 2-457 limits assumed): as the sequence (P04958 2-457 limits assumed, chain 1 of 2) above
The target is the same in assay [15]. Description: BLI (Octet Red96); avidity (bivalent for TeNT); format for this SDA not told.
For assay [16] the target is unchanged. As to the kind of experiment: BLI (Octet Red96); estimate of the footnote with kdis set to 1.0E-07; avidity.
In assay [17] the target is T5, mouse albumin (mouse, UniProt P07724 25-608). As to the kind of experiment: ELISA on coated albumin.
For assay [18], the target named is T6, swine albumin (swine, UniProt P08835 25-607).
T6 construct: also called Porcine albumin
T6 sequence (P08835 25-607 limits assumed): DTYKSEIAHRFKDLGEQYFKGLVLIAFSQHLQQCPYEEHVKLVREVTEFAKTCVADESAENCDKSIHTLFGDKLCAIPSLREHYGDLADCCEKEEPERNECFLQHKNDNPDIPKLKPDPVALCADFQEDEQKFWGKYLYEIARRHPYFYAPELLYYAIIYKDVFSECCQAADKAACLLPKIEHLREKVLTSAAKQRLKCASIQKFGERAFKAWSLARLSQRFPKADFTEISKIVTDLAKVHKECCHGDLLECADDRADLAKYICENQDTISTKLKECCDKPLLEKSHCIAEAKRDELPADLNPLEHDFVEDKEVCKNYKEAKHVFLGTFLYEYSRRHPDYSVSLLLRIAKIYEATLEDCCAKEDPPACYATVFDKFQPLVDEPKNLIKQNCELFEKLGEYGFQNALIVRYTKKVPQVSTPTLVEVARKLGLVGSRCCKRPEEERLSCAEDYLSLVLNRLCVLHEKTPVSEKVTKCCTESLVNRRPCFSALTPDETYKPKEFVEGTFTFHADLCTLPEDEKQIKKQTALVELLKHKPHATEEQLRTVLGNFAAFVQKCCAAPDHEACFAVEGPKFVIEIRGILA
Description: ELISA on coated albumin.

The target of assay [19] is T7, human albumin (human, UniProt P02768 25-609). As to the kind of experiment: ELISA on coated albumin.
The target in assay [20] is T8, sheep albumin (sheep, UniProt P14639 25-607). Description: ELISA on coated albumin.
T8 sequence (P14639 25-607 limits assumed): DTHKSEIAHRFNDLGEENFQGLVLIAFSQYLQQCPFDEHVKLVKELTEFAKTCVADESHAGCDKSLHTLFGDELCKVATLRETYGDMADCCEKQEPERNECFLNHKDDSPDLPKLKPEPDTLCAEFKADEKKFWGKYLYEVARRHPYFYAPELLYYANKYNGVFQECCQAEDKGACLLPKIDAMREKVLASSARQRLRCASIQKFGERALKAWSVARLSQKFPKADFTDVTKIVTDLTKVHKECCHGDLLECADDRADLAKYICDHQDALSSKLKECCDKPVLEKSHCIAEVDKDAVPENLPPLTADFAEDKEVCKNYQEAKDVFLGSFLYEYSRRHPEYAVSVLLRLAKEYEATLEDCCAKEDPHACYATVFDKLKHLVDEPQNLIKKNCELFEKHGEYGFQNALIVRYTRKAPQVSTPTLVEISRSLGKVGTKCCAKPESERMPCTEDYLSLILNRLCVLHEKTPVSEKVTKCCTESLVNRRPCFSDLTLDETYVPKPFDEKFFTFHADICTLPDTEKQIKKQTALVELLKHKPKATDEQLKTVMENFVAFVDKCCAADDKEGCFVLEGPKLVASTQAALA
Assay [21] addresses T9, bovine albumin (bovine, UniProt P02769 25-607). As to the kind of experiment: ELISA on coated albumin.
Assay [22] deals with T10, chicken ovalbumin (chicken, UniProt P01012 2-386).
T10 construct: also called Chicken Alb
T10 sequence (looked up): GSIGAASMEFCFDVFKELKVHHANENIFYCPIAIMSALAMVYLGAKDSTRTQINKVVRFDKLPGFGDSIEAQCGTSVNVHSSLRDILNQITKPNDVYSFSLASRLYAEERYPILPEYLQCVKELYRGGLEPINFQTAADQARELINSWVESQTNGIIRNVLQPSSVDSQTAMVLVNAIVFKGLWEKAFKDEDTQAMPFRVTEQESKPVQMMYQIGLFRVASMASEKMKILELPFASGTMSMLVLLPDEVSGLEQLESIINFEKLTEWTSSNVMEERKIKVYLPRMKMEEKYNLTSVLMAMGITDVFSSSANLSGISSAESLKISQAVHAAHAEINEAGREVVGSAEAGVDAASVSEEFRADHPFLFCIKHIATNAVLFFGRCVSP
Description: ELISA on coated albumin.

Assay [23] has as its target T11, horse albumin (horse, UniProt P35747 25-607).
T11 construct: also called Equine albumin
As to the kind of experiment: ELISA on coated albumin.

Assay [24] has as its target T12, dog albumin (dog, UniProt P49822 25-608).
T12 construct: also called Canine albumin
As to the kind of experiment: ELISA on coated albumin.

The target in assay [25] is T13, cat albumin (cat, UniProt P49064 25-608).
T13 construct: also called Feline albumin
Description: ELISA on cat albumin captured from serum.

Assay [26] deals with T5, mouse albumin. Description: ELISA; A450 below 0.2 at highest SDA concentration.
The target of assay [27] is T6, swine albumin. Description: ELISA; A450 below 0.2 at highest SDA concentration.
For assay [28], the target named is T13, cat albumin. As to the kind of experiment: ELISA; A450 below 0.2 at highest SDA concentration.
The target of assay [29] is T7, human albumin. Description: ELISA; A450 below 0.2 at highest SDA concentration.
Assay [30] concerns the target T8, sheep albumin. Description: ELISA; A450 below 0.2 at highest SDA concentration.
The target in assay [31] is T9, bovine albumin. Description: ELISA; A450 below 0.2 at highest SDA concentration.
For assay [32], the target named is T10, chicken ovalbumin. As to the kind of experiment: ELISA; A450 below 0.2 at highest SDA concentration.
The target of assay [33] is T11, horse albumin. As to the kind of experiment: ELISA; A450 below 0.2 at highest SDA concentration.
Assay [34] deals with T12, dog albumin. As to the kind of experiment: ELISA; A450 below 0.2 at highest SDA concentration.

Like-named read-outs stand apart in the source and are kept apart here.

T9 sequence (P02769 25-607 limits assumed): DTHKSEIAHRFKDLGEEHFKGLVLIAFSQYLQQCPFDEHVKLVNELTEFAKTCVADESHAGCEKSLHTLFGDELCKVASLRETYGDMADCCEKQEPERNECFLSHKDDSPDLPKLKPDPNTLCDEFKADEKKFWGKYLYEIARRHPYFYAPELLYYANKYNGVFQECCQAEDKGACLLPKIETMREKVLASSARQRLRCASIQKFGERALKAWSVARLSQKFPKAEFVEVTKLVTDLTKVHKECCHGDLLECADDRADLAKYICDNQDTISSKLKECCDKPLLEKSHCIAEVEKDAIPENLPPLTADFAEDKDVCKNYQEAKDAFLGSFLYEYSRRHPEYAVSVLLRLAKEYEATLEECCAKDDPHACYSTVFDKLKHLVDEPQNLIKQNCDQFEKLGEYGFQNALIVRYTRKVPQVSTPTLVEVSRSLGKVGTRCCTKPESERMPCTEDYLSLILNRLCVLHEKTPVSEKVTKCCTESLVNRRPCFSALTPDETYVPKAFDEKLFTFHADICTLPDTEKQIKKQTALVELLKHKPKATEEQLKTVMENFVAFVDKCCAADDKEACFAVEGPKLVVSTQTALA
T12 sequence (P49822 25-608 limits assumed): as the sequence (P49822 25-608) above

B1: SVT16L (VHH)
VHH: QVQLQESGGGSVQAGDSLRLSCAASGRTISNYAMGWFRQAPGKQREFVAAISRSDNTYYTDSVKGRFTISRDNAKNTLYLQMNSLKPEETAVYYCAADPNLMYESKWKYRALEAWGQGTLVTVSS
For B1, the “minimal absorbance value (GT1b-TeNT inhibition)” value in [1] amounted to 0.18 A450. The “Effective SDA Concentration at A450 0.56” value in assay [2] amounted to 21 ng/mL. For the same molecule, the binding result in assay [3] is given as “no binding (tested: 100 nM)”. The maximal absorbance value in assay [4] amounted to 1.56 A450; in [6] it was 0.44 A450; in [9] it was 0.18 A450. Besides, the “Effective SDA Concentration at A450 0.15” value in assay [5] amounted to 1.4 ng/mL; in [7], 5 ng/mL. The same molecule yielded a Kd in assay [8] of 339 pM. The same molecule showed a koff in [8] of 0.000311 s⁻¹. In addition, the kon in [8] worked out at 916000 M⁻¹ s⁻¹. Further, the “Effective SDA Concentration at A450 0.3” value in [10] was more than 1000 ng/mL.

B2: SVT15-3FW4M-GS3-SVT06-GS2-SVG13M5-H6 (bispecific antibody)
chain: QVQLQESGGGLVQTGGSLRLSCRASGRAFANYHFGWFRQAPGKDREFVASISWKGGSTYYANFALGRFTSSVDRAESSVYLQMSGLTPEDTATYYCAAHDGGDWNYHTGMDYWGQGTQVTVSSGGGGSGGGGSGGGGSQVQLQESGGGSVQAGGSLRLSCTASELSYDDYTIAWFRRAAGEGRVEDGEGVASITKSYDRAYDNKINYGHSVKGRFTISRDNAKNTVYLQMTDLLPSDTAVYYCALDITPPGGVGASLTEGFLFDYWGQGTQVTVSSGGGGSGGGSEVQLVESGGGLVQPGGSLRLSCEASGFTFDDYGMSWVRQAPGKGLEWVSSLTPNGGSTYYADSVKGRFTISRDNAKNTLYLQMNSLKPEDTALYYCAKNSYYGAMDYRGQGTQVTVSSHHHHHH
On to B2, for which the binding result was “no binding (tested: 500 nM)” in the assay with dog serum albumin, “no binding (tested: 100 nM)” in the assay with horse serum albumin and “no binding (tested: 100 nM)” with human serum albumin.

B3: SVT03L (VHH)
VHH: QVQLQQSGGGSVQTGDSLTLSCTASGGSLNSYFVGWFRQSGGKEREFVSVIARTGRSTSYADSVKGRFTISRDNAANTVFLTMNNLRPDDTAIYYCAAVGRPGVLHLTQSYDYWGQGTQVTVSS
Turning to B3, in [11], the Kd is less than 1 pM. Also, in assay [12], the Endpoint dilution factor was less than 1 and the “SDA concentration providing full protection” value is more than 1000 nM. In assay [13], the koff is less than 1e-07 s⁻¹ and the kon was 5.65e+06 M⁻¹ s⁻¹. Further, in [14], the Kd was approximately 0.0177 pM.

B4: SVT06-GS3-SVT15-3FW4M-GS2-SVG06M4-H6 (bispecific antibody)
chain: QVQLQESGGGSVQAGGSLRLSCTASELSYDDYTIAWFRRAAGEGRVEDGEGVASITKSYDRAYDNKINYGHSVKGRFTISRDNAKNTVYLQMTDLLPSDTAVYYCALDITPPGGVGASLTEGFLFDYWGQGTQVTVSSGGGGSGGGGSGGGGSQVQLQESGGGLVQTGGSLRLSCRASGRAFANYHFGWFRQAPGKDREFVASISWKGGSTYYANFALGRFTSSVDRAESSVYLQMSGLTPEDTATYYCAAHDGGDWNYHTGMDYWGQGTQVTVSSGGGGSGGGSEVQLVESGGALVQPGGSLRLSCAASGFPFSAYDMTWVRQAPGQGLEWVSTIHKSGGITTYADSVKGRFTISRDNAKNTLYLQMNNLESEDTAVYYCAKALRAHNSDYVGRNALGSWGQGTQVTVSSHHHHHH
In assay [11], B4 showed a Kd of less than 1 pM. Moreover, in assay [15], the koff was less than 1e-07 s⁻¹ and the kon was found to be 69100 M⁻¹ s⁻¹. In [16], the Kd is approximately 1.45 pM.

B5: SVT06L (VHH)
VHH: QVQLQESGGGSVQAGGSLRLSCTASELSYDDYTIAWFRRAAGEGRVEDGEGVASITKSYDRAYDNKINYGHSVKGRFTISRDNAKNTVYLQMTDLLPSDTAVYYCALDITPPGGVGASLTEGFLFDYWGQGTQVTVSS
Consider B5, for which the “SDA Effective Concentration resulting in A450 nm = 0.2” value with mouse albumin [17], with swine albumin [18], in the assay with human albumin [19], with sheep albumin [20], with bovine albumin [21] and with chicken ovalbumin [22] was more than 1000 ng/mL each time. The “SDA Effective Concentration resulting in A450 nm = 0.2” value with horse albumin [23] and with dog albumin [24] was more than 1000 ng/mL each time. Also, the “maximal absorbance value at 450 nm” value is 0.073 A450 with mouse albumin [17]; 0.08 A450 with swine albumin [18]; 0.065 A450 with human albumin [19]; 0.06 A450 in the assay with sheep albumin [20]; 0.051 A450 with bovine albumin [21]; 0.057 A450 with chicken ovalbumin [22]. Moreover, the “maximal absorbance value at 450 nm” value in the assay with horse albumin [23] worked out at 0.056 A450; with dog albumin [24] it was 0.053 A450; with cat albumin [25] it was 0.099 A450. Also, the binding result with mouse albumin [26], in the assay with swine albumin [27], with cat albumin [28], in the assay with human albumin [29], with sheep albumin [30] and in the assay with bovine albumin [31] was “no binding (tested: 1000 ng/ml)” in each case. Also, the binding result in the assay with chicken ovalbumin [32], with horse albumin [33] and in the assay with dog albumin [34] was “no binding (tested: 1000 ng/ml)” in each case.
